In publication PMC8664833:

Target: ZAP-S (short isoform of zinc-finger antiviral protein) (human, UniProt Q7Z2W4-2 1-699)
Test: MST; 5 mM Mg2+
Conditions: protein: recombinant, tags: N-terminal 6xHis-SUMO, label: 3' pCp-Cy5

ZAP-S (short isoform of zinc-finger antiviral protein), sequence (Q7Z2W4 other isoform, or with tags, fused parts or gaps): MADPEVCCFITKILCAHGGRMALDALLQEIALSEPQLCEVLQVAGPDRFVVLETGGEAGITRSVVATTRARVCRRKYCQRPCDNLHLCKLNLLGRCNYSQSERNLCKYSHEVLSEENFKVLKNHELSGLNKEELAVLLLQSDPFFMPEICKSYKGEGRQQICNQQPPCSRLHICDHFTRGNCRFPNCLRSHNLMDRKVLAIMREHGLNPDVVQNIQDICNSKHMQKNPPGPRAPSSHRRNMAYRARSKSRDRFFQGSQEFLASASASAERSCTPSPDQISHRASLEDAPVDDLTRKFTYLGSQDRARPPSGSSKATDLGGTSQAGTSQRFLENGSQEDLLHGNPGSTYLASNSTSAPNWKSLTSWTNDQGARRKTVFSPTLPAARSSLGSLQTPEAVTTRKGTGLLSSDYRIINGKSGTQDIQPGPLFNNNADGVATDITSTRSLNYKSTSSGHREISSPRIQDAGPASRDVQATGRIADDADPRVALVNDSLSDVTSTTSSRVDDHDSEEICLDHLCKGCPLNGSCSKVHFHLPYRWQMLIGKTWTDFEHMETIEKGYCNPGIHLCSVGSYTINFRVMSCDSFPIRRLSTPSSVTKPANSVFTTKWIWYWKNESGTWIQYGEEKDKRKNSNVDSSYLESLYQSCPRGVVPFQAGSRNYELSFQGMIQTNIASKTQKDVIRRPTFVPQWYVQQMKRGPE

B1: dSL2 mutant (structured_RNA)
RNA: UCGUUUUUAAACGGGUUUGCGGUGUAAGUGCAGCCCGUCUUACACCGUGCGGCACAGGCACUAGUACUGAUGUCGU
- Kd (two consecutive stem-loops): 672 ± 164 nM

B2: dSL3 mutant (structured_RNA)
RNA: UCGUUUUUAAACGGGUUUGCGGUGUAAGUGCAGCCCGUCUUACACCGUAUACAGGGCU
- Kd (shorter pseudoknot (predicted)): 175 ± 64 nM

B3: Compensatory mutant (structured_RNA)
RNA: UCGUUUUUAAACGGGUUUGGGGUGUAAGUGCAGCCCGUCUUACACCCUGGGGCACAGGCACUAGUACUGAUGUCCUAUACAGGGCU
- Kd (pseudoknot (predicted)): 128 ± 29 nM

Binder: UCGUUUUUAAACGGGUUUGCGGUGUAAGUGCAGCCCGUCUUACACCGU (structured_RNA) [dSL2+3 mutant (SL1 only)]
- binding result (hairpin): no binding
